From patent US7074765B2, “Synthetic peptide analogs of Arg-Pro-Pro-Gly-Phe as selective inhibitors of thrombin and thrombin activation of protease activated receptors 1 and 4” (The Regents of the University of Michigan, priority 2003, dated 2006)
Where two headings read alike, the source gives them in different places. Ends that are not written are not given here.

Legend:
[1] = system: platelet activation and deposition; settings: ex vivo balloon injury; similar to aspirin; cited from earlier work
[2] = system: normal human lung fibroblasts (NHLF); assay: α-thrombin-induced calcium mobilization in fibroblasts; type: cell-based; settings: 0.1 mM peptide; α-thrombin-induced calcium mobilization in fibroblasts
Method: The second assay developed to assess peptides from the combinatorial libraries uses inhibition of α-thrombin-induced calcium mobilization in fibroblasts. Normal human lung fibroblasts (NHLF) were purchased from Clonetics, San Diego, Calif., an affiliate of Bio-Wittaker, Walkersville, Md. The cytoplasmic free Ca^2+ concentration ([Ca^2+]i) was measured using the fluorescent Ca^2+ indicator fura-2 (Molecular Probes, Inc., Eugene, Oreg.). Suspension of fibroblasts in Hepes-Tyrode's buffer were loaded with fura-2 by incubation at 37° C. with 2 μM fura-2/acetoxymethyl ester for 45 minutes according to the method of Rasmussen et al., J. Biol. Chem. 268, 14322 (1993). The labeled fibroblasts were separated from excess probe by washing by centrifugation at 1000 rpm (180×g). Aliquots of the labeled fibroblasts were transferred into a quartz cuvette with a magnetic stirrer, which was then placed in a thermostatically controlled chamber at 37° C. in a fluorescence spectrophotometer (Perkin-Elmer LS50B spectrofluorometer, Chicago, Ill.). Reagents, test peptide, and α-thrombin (0.25–2 nM), were sequentially added directly to the cuvette. The excitation wavelengths varied between 340 and 380 nm. Fluorescence was measured by recording emitted light at 510 nm as reported by Fisher et al., Mol Pharm. 35, 195 (1989). The minimum emission was determined on a solubilized fibroblast sample in the presence of 10 mM EDTA; maximum emission was determined on the same sample with 10 mM Ca^2+ added. The intrafibroblast free Ca^2+ concentration was calculated by the method of Grykiewicz et al., J. Biol. Chem. 260, 3440 (1985). […] The KD for fura-2 was assumed to be 224 nM. Rmax and Rmin are the maximum and minimum fluorescence ratios measured at the end of the experiment, respectively; Sf2 and Sb2 are the fluorescence values at 380 nm in the absence and presence of saturating [Ca^2+], respectively. The reaction was monitored for 3–5 minutes.

[3] = biological target: T1, recombinant protease activated receptor 1 extracellular domain (rPAR1EC) (Homo sapiens, UniProt P25116); assay: Inhibition of RPPGF-biotin binding to rPAR1EC; settings: 5 mM peptide, 50 μM RPPGF-biotin (FIG. 7); listed in decreasing order
T1 construct: A portion of the extracellular domain of human PAR1 (Ala^26-Ser^99) (rPAR1EC) was expressed in Escherichia coli; His10-DDDDK (pET19b) (N); made in house; host or cells: E. coli BL21(DE3), pET19b
T1 sequence (P25116 26-99): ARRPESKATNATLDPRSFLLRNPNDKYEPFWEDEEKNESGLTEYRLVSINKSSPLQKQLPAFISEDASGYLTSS

[4] = biological target: T2, α-thrombin cleavage of recombinant extracellular fragment of human PAR1 (rPAR1EC) (Homo sapiens, UniProt P00734); assay: Inhibition of α-thrombin-induced cleavage of rPAR1EC; type: biochemical
T2 construct: A portion of the extracellular domain of human PAR1 (Ala^26-Ser^99) (rPAR1EC) was expressed in Escherichia coli; with 1 nM of α-thrombin or 0.5 μg/mL thrombocytin (16.7 nM); His10-DDDDK (pET19b) (N); made in house; host or cells: E. coli BL21(DE3), pET19b (rPAR1EC)
Method: (§1) Thrombocytin is a snake venom enzyme that activates platelets by cleaving PAR1 at the thrombin cleavage site (Santos et al., FEBS Letters. 18, 3570–3577 (2000)). […] The ability of MAP4-rOicPGF to block thrombocytin cleavage of rPAR1EC was performed as follows. One μg of rPAR1EC in 0.01 mM Tris-HCL, 0.2 M NaCl, pH 8.0 was incubated at 37° C. for 15 min or 45 min with 1 nM of α-thrombin or 0.5 μg/mL thrombocytin (16.7 nM), respectively, in the absence or presence of 0.025 to 1 mM MAP4-rOicPGF. The reaction mixture was separated on SDS-PAGE and stained with Coomassie Brilliant Blue. The cleaved gel images were scanned using the software Scion Image, ScionCorp, Frederick, Md.

[5] = system: lipopolysaccharide-treated rats; settings: infusion; cited from earlier work
coronary thrombosis = settings: canine electrolytic injury model; similar to aspirin treatment; cited from earlier work
[6] = biological target: T3, recombinant extracellular fragment of human protease activated receptor 4 (rPAR4EC) (Homo sapiens, UniProt Q96RI0); assay: Inhibition of RPPGF-biotin binding to rPAR4EC; settings: 5 mM peptide; 50 μM RPPGF-biotin
T3 construct: starting with Gly^18, the first amino acid after the signal peptide is removed, and finishing with Arg^78; made in house; host or cells: E. coli BL21, pET19b-PAR4
T3 sequence (Q96RI0 18-78): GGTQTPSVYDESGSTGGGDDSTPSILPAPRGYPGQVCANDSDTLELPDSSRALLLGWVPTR
Text: The extracellular fragment of human PAR4 has been expressed in bacteria. Human erythroleukemia (HEL) cells were used as a source for PAR4 mRNA. The level of PAR4 mRNA was substantially higher in HEL cells than washed human platelets. […] These primers give a 204 basepair fragment which code for a 61 amino acid hPAR4 protein starting with Gly^18, the first amino acid after the signal peptide is removed, and finishing with Arg^78, the last amino acid of the extracellular fragment (Xu et al. Proc. Natl. Acad. Sci. 95, 6642–6646 (1998)). The pET19b-PAR4 vector after cloning was used to transform BL21 cells to express the recombinant protein. The expressed recombinant protein was purified on a DEAE Sephadex followed by a nickel affinity column (the recombinant protein has a 10 His-tag on its amino terminal end). The isolated, recombinant extracellular domain of PAR4 (rPAREC) is about 15 kDa on 16.5% Tris-Tricine SDS-PAGE. The recombinant protein is recognized as being human PAR4 by detection with an antibody prepared from a peptide (S^41[…]^52) (SEQ ID NO:9) from human PAR4EC. Recombinant PAR4EC was linked to microtiter plate cuvette wells. Goat polyclonal antibody to human PAR1, PAR3, or PAR4 was incubated with the coated microtiter plate cuvette wells and antibody binding was detected. Only antibody to PAR4 detected rPAR4EC linked to the microtiter plate wells. […]

[7] = biological target: T4, SILPAPRGYPGQ, thrombin binding and cleaving region on human PAR4 (Homo sapiens, UniProt Q96RI0); assay: Inhibition of SILPAPRGYPGQ-biotin binding to RPPGC; settings: 10 micromolar biotinylated-SIL12; 0.001 to 5 mM peptide
T4 construct: host or cells: synthetic peptide
Method: Investigations were performed to determine if the compounds in the present invention interact with human PAR4. In FIG. 11, RPPGC (SEQ ID NO:10) was bound to plastic microtiter plates, After washing, biotinylated-[…] (SEQ ID NO:14) was incubated with the cuvette wells in the absence or presence of 0.001 to 5 mM RPPGF (SEQ ID NO:4), TH146, TH26, SIL12 (SEQ ID NO:9), or a scrambled peptide of RPPGF, FPRPG (Phe-Pro-Arg-Pro-Gly, SEQ ID NO:21). Peptide […]

thrombin = thrombin (Homo sapiens, UniProt P00734); settings: read-out: Ki (retrobinders to the active site of thrombin); cited from earlier work
[8] = biological target: T5, thrombocytin cleavage of recombinant human PAR1 extracellular domain (Homo sapiens, UniProt P25116); assay: Inhibition of thrombocytin-induced cleavage of rPAR1EC; type: biochemical; settings: 16.7 nM thrombocytin, 45 min, 37° C.; below concentration that blocks the enzyme's proteolytic activity
T5 construct: A portion of the extracellular domain of human PAR1 (Ala^26-Ser^99) (rPAR1EC) was expressed in Escherichia coli; His10-DDDDK (pET19b) (N); made in house; host or cells: E. coli BL21(DE3), pET19b (rPAR1EC)
T5 sequence (P25116 26-99): T1 sequence (P25116 26-99)
Method: as §1

mouse carotid artery = settings: cited from earlier work
mouse platelets = settings: cited from earlier work
cyclic flow variations = settings: Folt's model, canine; similar degree as aspirin or clopidogrel; cited from earlier work

Row | Substance | platelet activation and deposition [1] | Ca^2^+ % Inhibition At 0.1 mM Peptide [2] | blocking of RPPGF-biotin binding to rPAR1EC by peptides [3] | effect on α-thrombin cleavage of rPAR1EC [4] | time to death [5] | effect on coronary thrombosis (coronary thrombosis) | blocking of RPPGF-biotin binding to rPAR4EC [6] | blocking of biotinylated-SILPAPRGYPGQ binding to RPPGC [7] | Ki (thrombin) | concentration that blocks thrombocytin cleavage of rPAR1EC [8] | time to thrombosis of the mouse carotid artery (mouse carotid artery) | mouse platelet aggregation (mouse platelets) | effect on α-thrombin cleavage of rPAR1EC ([4]; 1 nM α-thrombin, 15 min, 37° C.) | effect on cyclic flow variations (cyclic flow variations)
1 | rPPGF (RPPGF; not fully specified (residue 1); printed as rPPGF) [Arg-Pro-Pro-Gly-Phe, peptide of the RPPGF analog library] | reduced platelet activation and deposition | No Effect | blocked | prevents these enzymes from cleaving rPAR1EC | delays the time to death | prevents coronary thrombosis | block | blocked | – | – | – | – | – | –
2 | β-Ala-Lys-2Lys-4(Arg-Pro-Pro-Gly-Phe) (RPPGF; also: four copies on beta-Ala-Lys-2Lys-4 branched core) [MAP4-RPPGF, four-branched peptide of RPPGF on a β-alanine-lysine core] | – | – | blocked | – | – | – | – | – | 1750 µM | 0.2 to 0.5 mM | delays the time to thrombosis | inhibits mouse platelet aggregation | prevents these enzymes from cleaving rPAR1EC | prevents cyclic flow variations
